Reference: publication PMC314469, “Protein Interaction Networks by Proteome Peptide Scanning” (PLoS Biology, 2004)

T1: Rvs167 SH3 (RV167_YEAST), P39743
T1 chain: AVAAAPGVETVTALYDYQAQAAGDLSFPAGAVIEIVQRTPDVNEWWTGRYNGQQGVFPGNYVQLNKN

T2: Boi2 SH3 (BOI2_YEAST), P39969
T2 chain: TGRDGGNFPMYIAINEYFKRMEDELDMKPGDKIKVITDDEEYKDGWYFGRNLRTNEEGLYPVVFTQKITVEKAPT

T3: Yhr016c SH3 (YSC84_YEAST), P32793
T3 chain: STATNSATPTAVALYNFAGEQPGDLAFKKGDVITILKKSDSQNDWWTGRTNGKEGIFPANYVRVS

T4: Yfr024 SH3 (LSB3_YEAST), P43603
T4 chain: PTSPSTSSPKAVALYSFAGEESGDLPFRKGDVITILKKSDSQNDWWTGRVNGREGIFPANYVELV

T5: Boi1 SH3 (BOI1_YEAST), P38041
T5 chain: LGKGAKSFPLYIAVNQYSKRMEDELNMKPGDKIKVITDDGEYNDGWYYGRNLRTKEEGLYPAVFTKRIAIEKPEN


Assays:
Assay in all cases: SPOT array
[1] = target: T1, Rvs167 SH3 (RV167_YEAST), P39743
[2] = target: T2, Boi2 SH3 (BOI2_YEAST), P39969
[3] = target: T3, Yhr016c SH3 (YSC84_YEAST), P32793
[4] = target: T4, Yfr024 SH3 (LSB3_YEAST), P43603
[5] = target: T5, Boi1 SH3 (BOI1_YEAST), P38041

Row | Binder | normalised SPOT signal, Boehringer light units (BLU); mean over the file's lines of this peptide [1] | normalised SPOT signal, Boehringer light units (BLU); mean over the file's lines of this peptide [2] | normalised SPOT signal, Boehringer light units (BLU); mean over the file's lines of this peptide [3] | normalised SPOT signal, Boehringer light units (BLU); mean over the file's lines of this peptide [4] | normalised SPOT signal, Boehringer light units (BLU); mean over the file's lines of this peptide [5]
1 | VTQPITPVKKRRSE [YNL230C 264-277] | 56.8 | 90 | 128 | 2650 | 442
2 | VSIPFDPSKDTFDH [YEL031W 741-754] | 72.7 | 34.1 | 70.3 | 0 | 105
3 | VTLPTGPAKIIWEK [YHR007C 510-523] | 24.1 | 19.3 | 143 | 38.2 | 94.8
4 | VTTPLKPKRLAIPI [YJR083C 47-60] | 17.7 | 20.4 | 364 | 1890 | 122
5 | VTLPISPSRASISF [YGL235W 70-83] | 25.8 | 33.4 | 79.2 | 951 | 52.6
6 | VSTPPVPKKFQEIF [YDL107W 9-22] | 53.6 | 35.5 | 55.4 | 695 | 62.2
7 | VPRPSPPIRRKSST [YNL106C 1070-1083] | 3250 | 232 | 3880 | 23000 | 494
8 | VQTPHVPDRPPSQL [YPR104C 731-744] | 52.6 | 55.9 | 845 | 4140 | 53.1
9 | VPPPNVPKKDKREV [YBR058C 659-672] | 124 | 17.8 | 206 | 980 | 294
10 | VPSPIVPNKMRKQL [YKL052C 214-227] | 202 | 126 | 191 | 2650 | 530
11 | VQQPEDPLRVLGEY [YDR469W 143-156] | 37.1 | 16.6 | 65.5 | 46.1 | 24.5
12 | VPSPGLPEKVNEKS [YLR119W 34-47] | -0 | 25.5 | 217 | 141 | 80.3
13 | VTKPVVPKKTKKSA [YLR087C 319-332] | 1 | 19 | 136 | 861 | 164
14 | VPEPSKPSRLLLVR [YNL034W 549-562] | 23.1 | 17 | 425 | 1200 | 61.9
15 | VTVPKLPFKLAVNK [YBR040W 181-194] | 50.5 | 69.6 | 230 | 3360 | 0
16 | VSDPYVPTRNTFNY [YDL020C 142-155] | 60.9 | 23.2 | 268 | 814 | 174
17 | VSPPFFPEKELNNR [YKR010C 454-467] | 32.6 | 25.6 | 97.4 | 323 | 41.2
